In publication PMC5773619, “Specific cyclic ADP-ribose phosphohydrolase obtained by mutagenic engineering of Mn^2+-dependent ADP-ribose/CDP-alcohol diphosphatase” (Scientific Reports, 2018):

B1: human ADPRibase-Mn (Homo sapiens; C253V) (protein)
chain: MDDKPNPEALSDSSERLFSFGVIADVQFADLEDGFNFQGTRRRYYRHSLLHLQGAIEDWNNESSMPCCVLQLGDIIDGYNAQYNASKKSLELVMDMFKRLKVPVHHTWGNHEFYNFSREYLTHSKLNTKFLEDQIVHHPETMPSEDYYAYHFVPFPKFRFILLDAYDLSVLGVDQSSPKYEQCMKILREHNPNTELNSPQGLSEPQFVQFNGGFSQEQLNWLNEVLTFSDTNQEKVVIVSHLPIYPDASDNVVLAWNYRDALAVIWSHECVVCFFAGHTHDGGYSEDPFGVYHVNLEGVIETAPDSQAFGTVHVYPDKMMLKGRGRVPDRIMNYKKERAFHC
notes: human liver cDNA, pGEX-6P-3-hADPRM, E. coli BL21; GST tag removed with PreScission protease, N-terminal extension … kept
B2: human ADPRibase-Mn (Homo sapiens; C253G/F37A/L196F/V252A) (protein)
chain: MDDKPNPEALSDSSERLFSFGVIADVQFADLEDGFNAQGTRRRYYRHSLLHLQGAIEDWNNESSMPCCVLQLGDIIDGYNAQYNASKKSLELVMDMFKRLKVPVHHTWGNHEFYNFSREYLTHSKLNTKFLEDQIVHHPETMPSEDYYAYHFVPFPKFRFILLDAYDLSVLGVDQSSPKYEQCMKILREHNPNTEFNSPQGLSEPQFVQFNGGFSQEQLNWLNEVLTFSDTNQEKVVIVSHLPIYPDASDNAGLAWNYRDALAVIWSHECVVCFFAGHTHDGGYSEDPFGVYHVNLEGVIETAPDSQAFGTVHVYPDKMMLKGRGRVPDRIMNYKKERAFHC
notes: as for B1

Legend:
Assay type in all cases: biochemical, Homo sapiens
Settings in all cases: 50 mM Tris-HCl pH 7.5, 0.4 mM MnCl2, 0.1 mg/ml BSA, 37 °C
[1] = substrate: N=c1c2ncn3c2ncn1[C@@H]1O[C@H](COP(=O)(O)OP(=O)(O)OC[C@H]2O[C@@H]3[C@H](O)[C@@H]2O)[C@@H](O)[C@H]1O; assay: HPLC assay of pRibAMP formation
Description: HPLC assay of pRibAMP formation on human ADPRibase-Mn | displaying a decreased kcat for cADPR (Supplementary Table S1)

[2] = substrate: C[N+](C)(C)CCOP(=O)(O)OP(=O)([O-])OC[C@H]1O[C@@H](n2ccc(N)nc2=O)[C@H](O)[C@@H]1O; assay: colorimetric phosphate assay coupled to alkaline phosphatase
[3] = substrate: Nc1ncnc2c1ncn2[C@@H]1O[C@H](CO)[C@H]2OP(=O)(O)O[C@H]21; assay: as above
[4] = substrate: N=c1c2ncn3c2ncn1[C@@H]1O[C@H](COP(=O)(O)OP(=O)(O)OC[C@H]2O[C@@H]3[C@H](O)[C@@H]2O)[C@@H](O)[C@H]1O; assay: HPLC assay of pRibAMP formation, initial rates, Michaelis-Menten fit
[5] = substrate: C[N+](C)(C)CCOP(=O)(O)OP(=O)([O-])OC[C@H]1O[C@@H](n2ccc(N)nc2=O)[C@H](O)[C@@H]1O; assay: colorimetric phosphate assay coupled to alkaline phosphatase, Michaelis-Menten fit
[6] = substrate: Nc1ncnc2c1ncn2[C@@H]1O[C@H](CO)[C@H]2OP(=O)(O)O[C@H]21; assay: as above

Protein	Km [1] [mM]	kcat [1] [s⁻¹]	Km [2]	kcat [2] [s⁻¹]	Km [3]	kcat [3] [s⁻¹]	Km [4] [mM]	kcat [4] [s⁻¹]	Km [5] [mM]	kcat [5] [s⁻¹]	Km [6] [mM]	kcat [6] [s⁻¹]
B1	0.56 ± 0.18	1.6 ± 0.1	1,120 ± 115 µM	109 ± 9	2,380 ± 250 µM	148 ± 8						
B2							0.14	13	10.6	37	8.7	12
